Data reported in publication PMC9590138.
pKd: −log10 of the molar value.

Molecular target: recombinant soluble CD146 (UniProt P43121)
Test: ELISA; in-house ELISA: binding of αvβ3 to rsCD146, dissociation constant estimated; methods in Additional file 1, not shown

- pKd: 8.74
Substance: integrin αvβ3 (protein used in the in-house ELISA) (from UniProt P06756 31-1048; P05106 27-788) (receptor)
